# B1: Mitogen-activated protein kinase kinase kinase 2 (Homo sapiens), Q9Y2U5 (parent)
# chain: MDDQQALNSIMQDLAVLHKASRPALSLQETRKAKSSSPKKQNDVRVKFEHRGEKRILQFPRPVKLEDLRSKAKIAFGQSMDLHYTNNELVIPLTTQDDLDKAVELLDRSIHMKSLKILLVINGSTQATNLEPLPSLEDLDNTVFGAERKKRLSIIGPTSRDRSSPPPGYIPDELHQVARNGSFTSINSEGEFIPESMDQMLDPLSLSSPENSGSGSCPSLDSPLDGESYPKSRMPRAQSYPDNHQEFSDYDNPIFEKFGKGGTYPRRYHVSYHHQEYNDGRKTFPRARRTQGTSLRSPVSFSPTDHSLSTSSGSSIFTPEYDDSRIRRRGSDIDNPTLTVMDISPPSRSPRAPTNWRLGKLLGQGAFGRVYLCYDVDTGRELAVKQVQFDPDSPETSKEVNALECEIQLLKNLLHERIVQYYGCLRDPQEKTLSIFMEYMPGGSIKDQLKAYGALTENVTRKYTRQILEGVHYLHSNMIVHRDIKGANILRDSTGNVKLGDFGASKRLQTICLSGTGMKSVTGTPYWMSPEVISGEGYGRKADIWSVACTVVEMLTEKPPWAEFEAMAAIFKIATQPTNPKLPPHVSDYTRDFLKRIFVEAKLRPSADELLRHMFVHYH
# Variants of: B1
# Conditions: with chip_human STUB1, Q9UNE7
# Chain of chip_human STUB1, Q9UNE7 (Q9UNE7 whole entry): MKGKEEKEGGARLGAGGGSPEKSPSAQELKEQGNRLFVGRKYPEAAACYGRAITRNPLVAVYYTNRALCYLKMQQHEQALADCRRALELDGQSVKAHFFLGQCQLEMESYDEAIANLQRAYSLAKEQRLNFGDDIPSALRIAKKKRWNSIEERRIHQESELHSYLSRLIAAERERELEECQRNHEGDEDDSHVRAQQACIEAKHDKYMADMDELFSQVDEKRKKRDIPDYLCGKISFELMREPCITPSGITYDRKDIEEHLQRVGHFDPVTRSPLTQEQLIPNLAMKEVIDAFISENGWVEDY
row,Variant,effect of a mutation on the interaction
1,K385M,disrupting interaction

# Variants of: B1
# Conditions: with chip_human STUB1, Q9UNE7
# Remark: another data set of the same source
row,Variant,effect of a mutation on the interaction
1,K385M,increasing interaction

# Variants of: B1
# Conditions: with ubc_human UBC
row,Variant,effect of a mutation on the interaction
1,K385M,disrupting interaction

# — IntAct's records for PubMed 20588253
